Results on two molecules are retold here after paper PMC11399261 (Nature Communications, 2024).

In one assay the target is Cdt1-Mcm2-7 heptamer (S. cerevisiae, UniProt P47112;P29469;P24279;P30665;P29496;P53091;P38132). Description: pull-down.
For assay [1], the target named is Orc2-ΔN175 containing ORC (S. cerevisiae, UniProt P54784;P32833;P54790;P54791;P50874;P38826). Description: MCM loading assay on DNA beads.
The target of assay [2] is Orc2-ΔN200 containing ORC (S. cerevisiae, UniProt P54784;P32833;P54790;P54791;P50874;P38826). Description: MCM loading assay on DNA beads.
The target of assay [3] is Orc2-I194E containing ORC (S. cerevisiae, UniProt P54784;P32833;P54790;P54791;P50874;P38826, I194E). Description: MCM loading assay on DNA beads.
Assay [4] addresses origin recognition complex (ORC), wild type (S. cerevisiae, UniProt P54784;P32833;P54790;P54791;P50874;P38826). Put plainly: MCM loading assay on DNA beads.

B1: GST-Orc2N200-I194E (domain or fragment)
chain: MLNGEDFVEHNDILSSPAKSRNVTPKRVDPHGERQLRRIHSSKKNLLERISLVGNERKNTSPDPALKPKTPSKAPRKRGRPRKIQEELTDRIKKDEKDTISSKKKRKLDKDTSGNVNEESKTSNNKQVMEKTGIKEKREREKIQVATTTYEDNVTPQTDDNFVSNSPEPPEPATPSKKSLTTNHDFTSPLKQIEMNNLKE
Regarding B1, the binding result in the assay with Cdt1-Mcm2-7 heptamer is on record as “binds”.

B2: His-SUMO-Cdc6 (natural protein)
chain: MSAIPITPTKRIRRNLFDDAPATPPRPLKRKKLQFTDVTPESSPEKLQFGSQSIFLRTKALLQKSSELVNLNSSDGALPARTAEYEQVMNFLAKAISEHRSDSLYITGPPGTGKTAQLDMIIRQKFQSLPLSLSTPRSKDVLRHTNPNLQNLSWFELPDGRLESVAVTSINCISLGEPSSIFQKIFDSFQDLNGPTLQIKNMQHLQKFLEPYHKKTTFVVVLDEMDRLLHANTSETQSVRTILELFLLAKLPTVSFVLIGMANSLDMKDRFLSRLNLDRGLLPQTIVFQPYTAEQMYEIVIQKMSSLPTIIFQPMAIKFAAKKCAGNTGDLRKLFDVLRGSIEIYELEKRFLLSPTRGSLNSAQVPLTPTTSPVKKSYPEPQGKIGLNYIAKVFSKFVNNNSTRTRIAKLNIQQKLILCTIIQSLKLNSDATIDESFDHYIKAITKTDTLAPLQRNEFLEICTILETCGLVSIKKTKCKGKTKRFVDKIDVDLDMREFYDEMTKISILKPFLH
In the case of B2, the binding result in assay [1], in assay [2], in assay [3] and in assay [4] was “binds” throughout.
